Laboratory results published in paper PMC2756588.

T1: Sla1-2, P32790
T1 sequence (P32790 60-140, looked up): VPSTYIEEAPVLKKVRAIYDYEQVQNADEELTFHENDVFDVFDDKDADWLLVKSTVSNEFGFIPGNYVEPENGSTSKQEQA

T2: Myo5, Q04439
T2 sequence (Q04439 1072-1160, looked up): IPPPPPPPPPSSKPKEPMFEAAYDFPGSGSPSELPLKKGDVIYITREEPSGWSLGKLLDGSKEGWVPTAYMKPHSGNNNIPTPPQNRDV

T3: Cyk3, Q07533
T3 sequence (Q07533 1-83, looked up): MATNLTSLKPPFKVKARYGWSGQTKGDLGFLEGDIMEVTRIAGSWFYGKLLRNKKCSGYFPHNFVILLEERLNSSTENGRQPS

T4: Lsb3, P43603
T4 sequence (P43603 385-451, looked up): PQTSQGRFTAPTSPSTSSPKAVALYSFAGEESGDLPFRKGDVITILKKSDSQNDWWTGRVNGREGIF

T5: Bud14, P27637
T5 sequence (P27637 247-328, looked up): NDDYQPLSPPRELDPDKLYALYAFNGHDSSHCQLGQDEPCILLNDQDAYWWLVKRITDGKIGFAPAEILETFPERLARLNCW

T6: Bzz1-1, P38822
T6 sequence (P38822 478-572, looked up): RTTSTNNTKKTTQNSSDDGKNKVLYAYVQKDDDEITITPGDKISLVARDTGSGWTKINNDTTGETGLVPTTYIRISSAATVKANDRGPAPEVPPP

T7: Boi1, P38041
T7 sequence (P38041 1-86, looked up): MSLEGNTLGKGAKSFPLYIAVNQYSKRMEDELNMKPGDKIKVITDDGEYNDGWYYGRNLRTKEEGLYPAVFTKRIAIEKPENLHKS

T8: Lsb4, P32793
T8 sequence (P32793 402-468, looked up): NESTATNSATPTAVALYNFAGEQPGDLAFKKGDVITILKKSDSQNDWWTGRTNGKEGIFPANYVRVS

T9: Bbc1, P47068
T9 sequence (P47068 1-78, looked up): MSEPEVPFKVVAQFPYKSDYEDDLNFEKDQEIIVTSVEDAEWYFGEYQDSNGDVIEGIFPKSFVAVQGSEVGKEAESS

T10: Fus1, P11710
T10 sequence (P11710 432-512, looked up): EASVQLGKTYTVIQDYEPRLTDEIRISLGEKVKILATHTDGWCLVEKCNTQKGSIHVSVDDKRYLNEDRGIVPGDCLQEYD

T11: Bzz1-2, P38822
T11 sequence (P38822 568-633, looked up): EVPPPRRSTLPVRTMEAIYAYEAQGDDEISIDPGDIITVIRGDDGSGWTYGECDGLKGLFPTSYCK

T12: Hof1, Q05080
T12 sequence (Q05080 590-669, looked up): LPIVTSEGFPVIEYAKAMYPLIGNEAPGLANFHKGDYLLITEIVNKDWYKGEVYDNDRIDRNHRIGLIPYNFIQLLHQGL

T13: Nbp2, Q12163
T13 sequence (Q12163 103-180, looked up): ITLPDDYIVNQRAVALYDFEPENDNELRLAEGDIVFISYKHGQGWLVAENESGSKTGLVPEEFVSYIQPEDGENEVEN

T14: Boi2, P39969
T14 sequence (P39969 32-116, looked up): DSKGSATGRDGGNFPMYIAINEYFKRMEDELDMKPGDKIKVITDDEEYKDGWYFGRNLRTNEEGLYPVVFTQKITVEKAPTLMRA

T15: Pex13, P80667
T15 sequence (P80667 295-386, looked up): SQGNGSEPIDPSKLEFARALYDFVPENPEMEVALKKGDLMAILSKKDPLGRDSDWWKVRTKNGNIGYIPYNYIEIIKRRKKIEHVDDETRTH

T16: Hse1, P38753
T16 sequence (P38753 208-285, looked up): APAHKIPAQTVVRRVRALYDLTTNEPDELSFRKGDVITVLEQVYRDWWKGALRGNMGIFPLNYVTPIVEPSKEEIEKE

T17: Pin3, Q06449
T17 sequence (Q06449 53-122, looked up): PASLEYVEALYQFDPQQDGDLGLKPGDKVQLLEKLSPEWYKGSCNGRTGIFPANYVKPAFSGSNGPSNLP

T18: Sla1-3, P32790
T18 sequence (P32790 344-424, looked up): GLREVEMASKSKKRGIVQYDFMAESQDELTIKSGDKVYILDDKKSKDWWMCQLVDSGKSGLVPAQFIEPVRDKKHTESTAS

T19: Cdc25, P04821
T19 sequence (P04821 50-136, looked up): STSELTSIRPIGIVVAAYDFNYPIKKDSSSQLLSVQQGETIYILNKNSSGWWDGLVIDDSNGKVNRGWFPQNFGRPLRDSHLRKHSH

T20: Abp1, P15891
T20 sequence (P15891 535-592, looked up): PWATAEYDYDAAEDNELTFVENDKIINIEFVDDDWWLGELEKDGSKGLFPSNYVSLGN

T21: Lsb1, P53281
T21 sequence (P53281 45-122, looked up): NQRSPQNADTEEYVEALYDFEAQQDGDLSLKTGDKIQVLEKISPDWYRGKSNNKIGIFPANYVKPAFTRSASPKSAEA


Key:
Test in all cases: SPOT array
Sla1-2, P32790 = target: T1, Sla1-2, P32790; details: median of control spots 712
Myo5, Q04439 = target: T2, Myo5, Q04439; details: median of control spots 471
Bem1-2, P29366 = details: median of control spots 4347
GST = details: median of control spots 978
Bem1-1, P29366 = details: median of control spots 4282
Cyk3, Q07533 = target: T3, Cyk3, Q07533; details: median of control spots 1451
Lsb3, P43603 = target: T4, Lsb3, P43603; details: median of control spots 406
Bud14, P27637 = target: T5, Bud14, P27637; details: median of control spots 956
Bzz1-1, P38822 = target: T6, Bzz1-1, P38822; details: median of control spots 4446
Boi1, P38041 = target: T7, Boi1, P38041; details: median of control spots 1162
Sho1, P40073 = details: median of control spots 1148
Lsb4, P32793 = target: T8, Lsb4, P32793; details: median of control spots 397
Bbc1, P47068 = target: T9, Bbc1, P47068; details: median of control spots 796
Fus1, P11710 = target: T10, Fus1, P11710; details: median of control spots 1200
Bzz1-2, P38822 = target: T11, Bzz1-2, P38822; details: median of control spots 4538
Hof1, Q05080 = target: T12, Hof1, Q05080; details: median of control spots 4086
Nbp2, Q12163 = target: T13, Nbp2, Q12163; details: median of control spots 357
Rvs167, P39743 = details: median of control spots 2707
Boi2, P39969 = target: T14, Boi2, P39969; details: median of control spots 1161
Pex13, P80667 = target: T15, Pex13, P80667; details: median of control spots 1341
Hse1, P38753 = target: T16, Hse1, P38753; details: median of control spots 1727
Pin3, Q06449 = target: T17, Pin3, Q06449; details: median of control spots 2171
Myo3, P36006 = details: median of control spots 468
Sla1-3, P32790 = target: T18, Sla1-3, P32790; details: median of control spots 5475
Cdc25, P04821 = target: T19, Cdc25, P04821; details: median of control spots 969
Abp1, P15891 = target: T20, Abp1, P15891; details: median of control spots 935
Lsb1, P53281 = target: T21, Lsb1, P53281; details: median of control spots 388

Sequence of Rvs167, P39743 (P39743 419-482): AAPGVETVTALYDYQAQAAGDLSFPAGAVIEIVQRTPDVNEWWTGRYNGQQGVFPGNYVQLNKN
Sequence of Bem1-2, P29366 (P29366 139-227): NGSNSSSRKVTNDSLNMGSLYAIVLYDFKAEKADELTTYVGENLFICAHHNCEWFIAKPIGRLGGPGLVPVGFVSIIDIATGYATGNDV
Sequence of Bem1-1, P29366 (P29366 55-141): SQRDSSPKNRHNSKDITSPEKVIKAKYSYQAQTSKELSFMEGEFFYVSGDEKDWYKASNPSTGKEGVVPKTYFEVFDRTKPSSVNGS
Sequence of Sho1, P40073 (P40073 287-367): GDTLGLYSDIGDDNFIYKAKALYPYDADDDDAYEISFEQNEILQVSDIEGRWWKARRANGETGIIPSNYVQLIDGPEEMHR

Row | Binder | SPOT intensity (Sla1-2, P32790) | SPOT intensity (Myo5, Q04439) | SPOT intensity (Bem1-2, P29366) | SPOT intensity (GST) | SPOT intensity (Bem1-1, P29366) | SPOT intensity (Cyk3, Q07533) | SPOT intensity (Lsb3, P43603) | SPOT intensity (Bud14, P27637) | SPOT intensity (Bzz1-1, P38822) | SPOT intensity (Boi1, P38041) | SPOT intensity (Sho1, P40073) | SPOT intensity (Lsb4, P32793) | SPOT intensity (Bbc1, P47068) | SPOT intensity (Fus1, P11710) | SPOT intensity (Bzz1-2, P38822) | SPOT intensity (Hof1, Q05080) | SPOT intensity (Nbp2, Q12163) | SPOT intensity (Rvs167, P39743) | SPOT intensity (Boi2, P39969) | SPOT intensity (Pex13, P80667) | also measured
1 | KDKKTKPTPPPKPSH | 1 | 0 | 5 | 3 | 1 | 2 | 2 | 4 | 0 | 0 | 50 | 0 | 0 | 4 | 1 | 0 | 2 | 1 | 0 | 0 | SPOT intensity (Hse1, P38753): 2; SPOT intensity (Pin3, Q06449): 0; SPOT intensity (Myo3, P36006): 0; SPOT intensity (Sla1-3, P32790): 0; SPOT intensity (Cdc25, P04821): 2; SPOT intensity (Abp1, P15891): 190; SPOT intensity (Lsb1, P53281): 0
2 | FPPKRKPLLRPQRSD | 1 | 0 | 19 | 2 | 1 | 3 | 48 | 19 | 0 | 6 | 154 | 81 | 266 | 6 | 28 | 4 | 9 | 25 | 1 | 16 | SPOT intensity (Hse1, P38753): 51; SPOT intensity (Pin3, Q06449): 19; SPOT intensity (Myo3, P36006): 30; SPOT intensity (Sla1-3, P32790): 25; SPOT intensity (Cdc25, P04821): 27; SPOT intensity (Abp1, P15891): 232; SPOT intensity (Lsb1, P53281): 69
3 | TKPTPPPKPSHLKPK | 0 | 0 | 0 | 0 | 0 | 1 | 75 | 1 | 0 | 0 | 199 | 5 | 1 | 2 | 0 | 3 | 1 | 0 | 0 | 266 | SPOT intensity (Hse1, P38753): 11; SPOT intensity (Pin3, Q06449): 0; SPOT intensity (Myo3, P36006): 0; SPOT intensity (Sla1-3, P32790): 1; SPOT intensity (Cdc25, P04821): 2; SPOT intensity (Abp1, P15891): 631; SPOT intensity (Lsb1, P53281): 0

Now from value to binder, other results behind:

Row | SPOT intensity (Sla1-2, P32790) | SPOT intensity (Myo5, Q04439) | SPOT intensity (Bem1-2, P29366) | SPOT intensity (GST) | SPOT intensity (Bem1-1, P29366) | SPOT intensity (Cyk3, Q07533) | SPOT intensity (Lsb3, P43603) | SPOT intensity (Bud14, P27637) | SPOT intensity (Bzz1-1, P38822) | SPOT intensity (Boi1, P38041) | SPOT intensity (Sho1, P40073) | SPOT intensity (Lsb4, P32793) | SPOT intensity (Bbc1, P47068) | SPOT intensity (Fus1, P11710) | SPOT intensity (Bzz1-2, P38822) | SPOT intensity (Hof1, Q05080) | SPOT intensity (Nbp2, Q12163) | SPOT intensity (Rvs167, P39743) | SPOT intensity (Boi2, P39969) | SPOT intensity (Pex13, P80667) | Binder | also measured
4 | 1 | 0 | 1 | 0 | 0 | 0 | 24 | 1 | 1 | 3 | 115 | 0 | 0 | 0 | 0 | 3 | 0 | 0 | 2 | 4 | DKKTKPTPPPKPSHL | SPOT intensity (Hse1, P38753): 4; SPOT intensity (Pin3, Q06449): 0; SPOT intensity (Myo3, P36006): 0; SPOT intensity (Sla1-3, P32790): 0; SPOT intensity (Cdc25, P04821): 1; SPOT intensity (Abp1, P15891): 410; SPOT intensity (Lsb1, P53281): 0
5 | 1 | 0 | 2 | 2 | 1 | 3 | 55 | 7 | 3 | 4 | 16 | 2 | 13 | 0 | 11 | 0 | 0 | 1 | 0 | 23 | GSKSGPPPRPKKPST | SPOT intensity (Hse1, P38753): 38; SPOT intensity (Pin3, Q06449): 2; SPOT intensity (Myo3, P36006): 3; SPOT intensity (Sla1-3, P32790): 4; SPOT intensity (Cdc25, P04821): 0; SPOT intensity (Abp1, P15891): 285; SPOT intensity (Lsb1, P53281): 0
6 | 550 | 624 | 5580 | 446 | 3920 | 2720 | 591 | 480 | 2630 | 1450 | 1570 | 768 | 1050 | 1230 | 2660 | 5260 | 1390 | 1950 | 1640 | 567 | AKDLIVPRRPEWNEG | SPOT intensity (Hse1, P38753): 1130; SPOT intensity (Pin3, Q06449): 694; SPOT intensity (Myo3, P36006): 461; SPOT intensity (Sla1-3, P32790): 2730; SPOT intensity (Cdc25, P04821): 347; SPOT intensity (Abp1, P15891): 766; SPOT intensity (Lsb1, P53281): 636
